From publication doi:10.1101/2022.04.25.489454
Like-named read-outs stand apart in the source and are kept apart here. Blank lines part the entries; values can stand above or below the molecule they belong to.

Tests used:
[1] = target: stabilized microtubules polymerised from cow brain tubulin (cow (purified from cow brains)) (UniProt Q6B856); test: TIRF microscopy of GFP-protein decoration of immobilized microtubules
[2] = target: full length human GFP-CLASP2α (human) (UniProt O75122); test: optical trap rupture force
[3] = target: full length human GFP-CLASP2α (human) (UniProt O75122); test: TIRF microscopy of microtubules tethered to protein clusters on DNA origami
[4] = target: stabilized microtubules polymerised from cow brain tubulin (cow (purified from cow brains)) (UniProt Q6B856); test: TIRF microscopy of GFP-protein decoration of immobilized microtubules; remark: listed apart in the source

- Kd [1]: 500 pM
- end brightness [1]: 594 a.u.
Molecule: full length human GFP-CLASP2α (from UniProt O75122-3 1-1515) (natural protein)

- pulling force withstood without rupture (13 of 39 microtubules) [2]: > 15.2 pN
- time for which half of the microtubules stay attached by their end [3]: 4 h
Molecule: stabilized microtubules polymerised from cow brain tubulin (from UniProt Q6B856 1-445) (complex)
- pulling force at 50% survival of the attachment [2]: 14 pN

- end brightness [4]: 757 a.u.
B1: GFP-L-TOG2-S (domain or fragment)
chain: KVPAPKTSGNPANSARKPGSAGGPKVGAGASKEGGAGAVDEDDFIKAFTDVPSIQIYSSRELEETLNKIREILSDDKHDWDQRANALKKIRSLLVAGAAQYDCFFQHLRLLDGALKLSAKDLRSQVVREACITVAHLSTVLGNKFDHGAEAIVPTLFNLVPNSAKVMATSGCAAIRFIIRHTHVPRLIPLITSNCTSKSVPVRRRSFEFLDLLLQEWQTHSLERHAAVLVETIKKGIHDADAEARVEARKTYMGLRNHFPGEAETLYNSLEPSYQKSLQTYLKSSGSVASLPQSDRSSSSSQESLNRPFSSKWSTANPSTVAGRVSAGSSKASSLPGSLQRSRSDIDVNAAAGAKAHHAAGQSVRSGRLGAGALNAGSYASLEDTSDKLDGTASEDGRVRAKLSAPLAGMGNAKADSRGRSRTKMVSQSQPGSRSGSPGRVLTTTALSTVSSGVQRVLVNSASAQKRSKIPRSQGCSREASPSRLSVARSSRIPRPSVSQGCSREASRESSRDTSPVRSFQPLGPGYGISQSS
